The values below are quoted from earlier work in publication PMC4082410.

What all share (experiment): kinetics
Series [1] concerns the target preMADH (Paracoccus denitrificans) (UniProt P22619).
Series [2] has as its target quinol MADH (Paracoccus denitrificans) (UniProt P22619).
Series [3] addresses quinone MADH (Paracoccus denitrificans) (UniProt P22619).

What is called Kd is the constant that tells how readily two partners part at equilibrium. bis-Fe(IV) MauG (from UniProt Q51658): the Kd in series [1] is under 1.5 µM; in series [2], 11.2 µM.
Take diferrous MauG (from UniProt Q51658): in series [3], the Kd was 10.1 µM.
